Results taken from patent CN111690062A (UNIV FUDAN, dated 2020).

Target: T1, Plasmodium falciparum PfRh5 protein (recombinant, expressed in Sf9 insect cells) (Plasmodium falciparum (恶性疟原虫), UniProt Q8IFM5 25-526, limits assumed)
T1 construct: In the BLI assay the protein was amine-coupled to AR2G sensors; also called 恶性疟PfRh5蛋白; PfRh5蛋白
T1 sequence (looked up): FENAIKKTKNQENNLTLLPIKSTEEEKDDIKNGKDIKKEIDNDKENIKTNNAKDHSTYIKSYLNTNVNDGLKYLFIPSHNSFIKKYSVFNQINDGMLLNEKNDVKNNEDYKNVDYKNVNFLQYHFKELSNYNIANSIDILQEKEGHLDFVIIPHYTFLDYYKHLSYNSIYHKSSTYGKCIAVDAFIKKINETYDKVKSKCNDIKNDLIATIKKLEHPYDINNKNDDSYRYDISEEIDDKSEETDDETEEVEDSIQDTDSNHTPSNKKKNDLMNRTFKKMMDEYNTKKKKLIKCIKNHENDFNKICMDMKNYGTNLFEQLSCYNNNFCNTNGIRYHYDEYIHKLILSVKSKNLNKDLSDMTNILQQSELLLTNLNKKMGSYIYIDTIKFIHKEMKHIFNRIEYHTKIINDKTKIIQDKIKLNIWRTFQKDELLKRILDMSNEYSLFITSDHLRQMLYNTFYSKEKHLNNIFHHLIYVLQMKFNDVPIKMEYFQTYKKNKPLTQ
Experiment: BLI (Octet-Red96) at 37°C; PfRh5 amine-coupled to AR2G sensor; G9 as analyte at 1.2-100 nM in 3-fold dilutions; 1:1 fit

B1: G9 antigen-binding fragment (Fab), fully human, against Plasmodium falciparum PfRh5 (Fab, V domains shown)
VH: EVQLVQSGGGLVQPGGSLRLSCAASGFTFDDYAMHWVRQAPGKGLEWVAVIWYDGSNKYYADSVKGRFTISRDNSKNTLYLQMNSLRAEDTAVYYCAREHIDDPAMVPSPPAFDIWGQGTMVTVSS
VL: EIVLTQSPATLSLSPGERATLSCRASQSVSSYLAWYQQKPGQAPRLLIYDASNRATGIPARFSGSGSGTDFTLTISSLEPEDFATYYCQQSYSTPRTFGQGTKLEIK
notes: also called 抗体G9; 克隆G9
Work on B1 yielded a Kd of 4.9 nM.
